Test [1] deals with T1, TNFR2-His (Sino Biological, 10417-H08H, NP_001057.1 Met1-Asp257, with multi-histidine tag expressed on … (human, UniProt P20333 23-257)).
T1 construct: range 1-257; Bought protein; also called recombinant human TNFR2 protein; TNFR2-His antigen; not shown: C-terminal multi-histidine tag
T1 sequence (looked up): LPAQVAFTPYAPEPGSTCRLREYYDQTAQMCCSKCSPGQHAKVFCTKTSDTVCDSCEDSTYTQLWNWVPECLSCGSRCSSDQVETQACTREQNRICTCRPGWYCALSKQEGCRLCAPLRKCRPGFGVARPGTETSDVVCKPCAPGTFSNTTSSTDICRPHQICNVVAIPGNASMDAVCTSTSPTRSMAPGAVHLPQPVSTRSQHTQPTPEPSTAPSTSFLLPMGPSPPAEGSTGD
The test is described as follows: ELISA, plate coated with TNFR2-His (second test). In short, it runs like this: (§1)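 Antibodies were serially diluted and incubated on blocked ELISA plates coated with C-terminally His-tagged recombinant human TNFR2. Detection used an enzyme-labelled anti-IgG secondary antibody, TMB development and a microplate reader, and the dilution series gave the EC50.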
(In general: An ELISA detects its analyte on a solid surface through an enzyme-linked reagent.)

Test [2] has as its target T1, TNFR2-His (Sino Biological, 10417-H08H, …). The test is described as follows: BLI, antibody captured on AHC probe, TNFR2 in solution. In short, it runs like this:
(§2)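 Antibodies at 50 nM in Q buffer were held on antibody-capture sensors, and the sensors were then moved into recombinant human TNFR2 diluted 2-fold in Q buffer, starting from 100 nM. Q buffer was 10 mM PBS pH 7.4 with 0.02% Tween 20 and 0.2% BSA. The work used bio-layer interferometry on an Octet in Basic Kinetics mode, and Kon, koff and Kd come from these kinetic association measurements.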

The target of test [3] is T2, human TNFR2 on the cell membrane (human, UniProt P20333 23-461).
T2 construct: whole, on cells; One molecule for all cell formats; also called TNFR2-CHO cells; CHO-TNFR2
T2 sequence (looked up): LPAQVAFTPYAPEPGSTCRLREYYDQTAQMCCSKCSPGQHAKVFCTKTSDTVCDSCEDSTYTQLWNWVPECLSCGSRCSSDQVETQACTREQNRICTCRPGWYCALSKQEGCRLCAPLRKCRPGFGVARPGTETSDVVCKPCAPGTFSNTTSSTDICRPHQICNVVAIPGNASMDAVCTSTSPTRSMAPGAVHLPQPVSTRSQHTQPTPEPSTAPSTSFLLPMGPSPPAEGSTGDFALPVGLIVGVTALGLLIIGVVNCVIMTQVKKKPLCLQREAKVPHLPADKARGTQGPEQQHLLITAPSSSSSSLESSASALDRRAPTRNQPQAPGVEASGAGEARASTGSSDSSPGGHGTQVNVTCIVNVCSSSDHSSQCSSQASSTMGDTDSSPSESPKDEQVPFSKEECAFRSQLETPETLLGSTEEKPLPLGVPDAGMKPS
Nature of the test: flow cytometry on CHO-TNFR2 cells. In short, it runs like this:
(§3)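 Binding was measured by flow cytometry (Beckman CytoFLEX) on a CHO line stably overexpressing human TNFR2. Cells in 96-deep-well plates were exposed to serially diluted antibodies, washed and labelled with a fluorescent anti-IgG secondary antibody, and EC50 was determined across the dilutions.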

The target of test [4] is T1, TNFR2-His (Sino Biological, 10417-H08H, …). The test is described as follows: ELISA, coated TNFR2-His. The essentials: as §1
The target is the same in test [5]. The test is described as follows: BLI, antibody captured on AHC probe, TNFR2-His in solution. In short, it runs like this:
as §2

For test [6], the target named is T2, human TNFR2 on the cell membrane. Nature of the test: flow cytometry, CHO-TNFR2 cells; CHO-TNFR2 cells. The essentials: as §3
On the technique in general: Flow cytometry measures light scatter and fluorescence of single cells or particles in a stream.

For test [7] the target is unchanged. Nature of the test: flow cytometry on CHO-TNFR2 cells. In short, it runs like this:
as §3
The source holds these as a separate data set.

Test [8] addresses T1, TNFR2-His (Sino Biological, 10417-H08H, …). The test is described as follows: ELISA, plate coated with TNFR2-His. The essentials:
as §1

Test [9] has as its target T3, recombinant human TNFR2 antigen (Kangdai, batch number A100114U) (human, UniProt P20333 23-257).
T3 construct: also called hTNFR2; TNFR2-FC (Shanghai Saijin Biopharmaceutical Co., Ltd., Qiangke, catalog number A100114U); not shown: Fc part of the bought TNFR2-FC
T3 sequence (looked up): T1 sequence (looked up)
The test is described as follows: ELISA, plate coated with recombinant human TNFR2 antigen. Here is the method:
(§4) After TMB development, the detection was performed using microplate reader: dual wavelength 450 nm/655 nm detection, and results were calculated by OD₄₅₀-OD₆₅₅.

Test [10] concerns the target T3, recombinant human TNFR2 antigen …. Nature of the test: ELISA, coated recombinant human TNFR2. Here is the method: as §4
Test [11] deals with T4, recombinant cynomolgus monkey TNFR2 (Cyno. TNFR2) (Sino Biological, 90102-C021) (cynomolgus monkey, UniProt A0A2K5VET2 132-366).
T4 sequence: T1 sequence (looked up) with S16G, S36P, P117Q, N164H, E210A, S216G, M223V
The test is described as follows: ELISA, plate coated with recombinant cynomolgus monkey TNFR2. The protocol: as §4
Using the same method as above, the TNFR2 antigens of cynomolgus monkey and mouse (Sino Biological, 90102-C021 and 50128-M08H) were coated separately. The anti-human TNFR2 mouse monoclonal antibodies to be tested were gradient diluted, then added with the anti-mouse Fab segment secondary antibody (Jackson Immuno Research, 515-035-072), and TMB development was performed. ELISA was used to detect the binding of 8 strains of mouse monoclonal antibodies to recombinant mouse TNFR2 (mTNFR2) and cynomolgus monkey TNFR2 (Cyno. TNFR2).

The record followed here is patent publication US20240392024A1 (SHANGHAI CELGEN BIO PHARMACEUTICAL, published 2024).

Substitutions are numbered along the chain they refer to. “And” between values parts separate entries of the source, which are not always exact repeats. Equal values may be shown once.

One may read the EC50 as the concentration needed to bring the measured effect to its halfway point. The term Kd denotes the equilibrium constant for the complex coming apart. Usually koff stands for a measure of how fast the partners let go of each other. For orientation: kon means the second-order rate constant of association.

B1: 12E12-huVH7 + huVL4(P08941) (antibody, V domains shown)
VH: QVQLVQSGAEVKKPGASVKVSCKASGYTITDFYIHWVRQAPGKGLEWMGRVDPEDGNTEYAQKFQGRVTMTTDTSTDTAYMELSSLRSEDTAVYYCSTWDGFSYFDYWGQGTTVTVSS
VL: EAVVTQSPATLSLSPGERATLSCRSSTGPVTTNNYANWVQQKPGQAFRGLIGGTNDRAPGIPARFSGSGSGTDTTLTISSLQPEDFAVYYCALWYRNHWVFGGGTKLEIK
notes: Humanized 12E12
In the case of B1, in [1], the half-maximal effective concentration (EC50) was 0.0273 µg/mL and 0.183 nM. Further, in test [2], the Kd is 2.8 nM, the koff turned out to be 0.0035 s⁻¹ and the kon worked out at 1.25e+06 M⁻¹ s⁻¹. The EC50 in test [3] was 0.0217 µg/mL and 0.145 nM.

B2: 12E12-huVH7 + huVL2(P08938) (antibody, V domains shown)
VH: B1 VH
VL: QAVVTQEPSLTVSPGGTVTLTCRSSTGPVTTNNYANWVQQKPGQAFRGLIGGTNDRAPGVPARFSGSLLGGKAALTLSGAQPEDEAEYYCALWYRNHWVFGGGTKLTVL
notes: Humanized 12E12
Turning to B2, the EC50 in test [1] was 0.0262 µg/mL and 0.176 nM. Besides, in test [2], the Kd was determined as 1.7 nM, the koff came to 0.00183 s⁻¹ and the kon was determined as 1.08e+06 M⁻¹ s⁻¹. The EC50 in test [3] was 0.0587 µg/mL and 0.394 nM.

B3: 12E12-huVH8 + huVL4(P08942) (antibody, V domains shown)
VH: B1 VH with Q1E, S17T, V20I, A24V, R38Q, Q62P, K63N, G66D, M70I, T72A
VL: B1 VL
notes: Humanized 12E12
On to B3, for which the EC50 in [1] is 0.0353 µg/mL and 0.237 nM. In test [2], this molecule returned a Kd of 3.25 nM, an off-rate (koff) of 0.00437 s⁻¹ and a kon of 1.34e+06 M⁻¹ s⁻¹. Moreover, the EC50 in test [3] was 0.0129 µg/mL and 0.087 nM.

B4: 11G2huVH2 + huVL2(P07267) (antibody, V domains shown)
VH: QVQLVQSGAEVKKPGASVKVSCKASGYTFITYDINWVRQAPGQGLEWIGWIYPRDGNTQFNENFKGRVTMTTDTSTSTAYMELRSLRSDDTAVYYCARGDRDYGYFDVWGQGTTVTVSS
VL: DIQMTQSPSSLSASVGDRVTITCRASQDISNYLNWYQQKPGKAPKLLIYFKSKLHSGVPSRFSGSGSGTDFTLTISSLQPEDFATYYCQQGNTLPLTFGGGTKLEIK
notes: Humanized 11G2
Take B4: the EC50 in [4] was 0.282 nM; in [6], 0.144 nM; in test [7], 0.0214 µg/mL; in test [8], 0.0421 µg/mL. The Kd in [5] was 7.3 nM. For the same molecule, in test [5], the koff is 0.00205 s⁻¹. Also, the on-rate (kon) in [5] amounted to 280000 M⁻¹ s⁻¹.

B5: 11G2huVH1 + huVL1(P07262) (antibody, V domains shown)
VH: B4 VH with V20L, R67K, V68A, T72V, T74E, L83V
VL: B4 VL with Q6P, P8T, P44V, I106L
notes: Humanized 11G2
Turning to B5, the EC50 came out at 0.095 nM in test [4], 0.006 nM in test [6], 0.0009 µg/mL in [7] and 0.0141 µg/mL in [8]. For the same molecule, the Kd in test [5] turned out to be 4.79 nM. Further, in test [5], the off-rate constant (koff) is 0.00115 s⁻¹. Further, the kon in test [5] turned out to be 239000 M⁻¹ s⁻¹.

B6: 11G2huVH2 + huVL1(P07263) (antibody, V domains shown)
VH: B4 VH
VL: B4 VL with Q6P, P8T, P44V, I106L
notes: Humanized 11G2
Consider B6, for which the EC50 in [4] was found to be 0.336 nM; in [6], 0.153 nM; in test [7], 0.0229 µg/mL; in [8], 0.0502 µg/mL. The Kd in test [5] came to 5.96 nM. Also, in [5], the koff was found to be 0.00171 s⁻¹. This molecule gave a kon in [5] of 287000 M⁻¹ s⁻¹.

B7: 11G2huVH3 + huVL2(P07268) (antibody, V domains shown)
VH: B4 VH with P41T, K65Q, T72R, D73N, T76I, R84S, D89E
VL: B4 VL
notes: Humanized 11G2
B7: the EC50 came to 0.271 nM in test [4], 0.2 nM in test [6], 0.0299 µg/mL in test [7] and 0.0404 µg/mL in [8]. Further, the Kd in test [5] came to 7.28 nM. This molecule also returned a koff in [5] of 0.0022 s⁻¹. The kon in test [5] stood at 302000 M⁻¹ s⁻¹.

B8: 11G2huVH5 + huVL1(P07266) (antibody, V domains shown)
VH: QVQLVQSGAEVKKPGASVKVSCKASGYTFITYDINWVRQATGQGLEWIGWIYPRDGNTQYAQKFQGRVTMTRNTSISTAYMELSSLRSEDTAVYYCARGDRDYGYFDVWGQGTTVTVSS
VL: B4 VL with Q6P, P8T, P44V, I106L
notes: Humanized 11G2
As to B8, the EC50 was found to be 0.094 nM in test [4], 0.01 nM in test [6], 0.0014 µg/mL in test [7] and 0.014 µg/mL in test [8]. This molecule also came in with a Kd in test [5] of 7.29 nM. For the same molecule, the off-rate (koff) in test [5] came out at 0.00163 s⁻¹. In test [5], this molecule gave an on-rate (kon) of 223000 M⁻¹ s⁻¹.

B9: 11G2huVH3 + huVL1(P07264) (antibody, V domains shown)
VH: B8 VH with Y60F, A61N, Q62E, K63N
VL: B4 VL with Q6P, P8T, P44V, I106L
notes: Humanized 11G2
On to B9, for which the EC50 in [4] amounted to 0.328 nM; in [6], 0.184 nM; in [7], 0.0275 µg/mL; in test [8] it was 0.049 µg/mL. This molecule returned a Kd in test [5] of 5.1 nM. In test [5], this molecule gave a koff of 0.00161 s⁻¹. Besides, in [5], the kon turned out to be 316000 M⁻¹ s⁻¹.

B10: 11G2huVH4 + huVL1(P07265) (antibody, V domains shown)
VH: B4 VH with F60Y, N61A, E62Q, N63K, K65Q
VL: B4 VL with Q6P, P8T, P44V, I106L
notes: Humanized 11G2
As for B10, the EC50 in test [4] was determined as 0.286 nM; in test [6], 0.171 nM; in test [7] it was 0.0256 µg/mL; in test [8], 0.0427 µg/mL. Further, in test [5], the Kd was found to be 9.76 nM. The same molecule returned a koff in test [5] of 0.00255 s⁻¹. In test [5], this molecule registered a kon of 261000 M⁻¹ s⁻¹.

B11: anti-human TNFR2 mouse monoclonal antibody 18A2 (antibody, V domains shown)
VH: DVQLQESGPGLVKPSQSLSLTCSVTGYSITSGYYWNWIRQFPGNKLEWMGYISYDGSNNYNPSLKKRISITRDTSKNQFFLKLNSVTTEDTATYYCTGGSGTSWGQGTLVTVSA
VL: DIVMTQSHKFMSTSVGDRVSITCKASQDVTTGIAWYQQKPGQSPKLLIYSASNRFTGVPDRFTGSGSGTDFTFTISSVQAEDLAVYFCQQHYSTPFTFGSGTKLEIQ
notes: also called 18A12
B11: the concentration giving a half-maximal response (EC50) is 0.312 nM in test [9]; 0.0465 µg/mL in [10]; > 1 µg/mL and > 6.7 nM in test [11].
